Source: article PMC11734626

Target: T7-tagged TanGIBLE (Tandem BAG6 domain I BUILD linked entity) (human) (UniProt P46379)
Test: co-IP

## Flag-tagged IL-2 receptor α subunit without its signal sequence (Flag-IL-2Rα ΔSS) (domain or fragment)
  fold co-precipitated against BAG6 N200, with MG-132: 2.4 fold
  fold co-precipitated against BAG6 N200, without MG-132: 5.6 fold
